Measured values from publication PMC6511015 (Proceedings of the National Academy of Sciences of the …, 2019).
Like-named read-outs stand apart in the source and are kept apart here.

B1: Escherichia coli dGTPase, wild type (enzyme)
chain: MAQIDFRKKINWHRRYRSPQGVKTEHEILRIFESDRGRIINSPAIRRLQQKTQVFPLERNAAVRTRLTHSMEVQQVGRYIAKEILSRLKELKLLEAYGLDELTGPFESIVEMSCLMHDIGNPPFGHFGEAAINDWFRQRLHPEDAESQPLTDDRCSVAALRLRDGEEPLNELRRKIRQDLCHFEGNAQGIRLVHTLMRMNLTWAQVGGILKYTRPAWWRGETPETHHYLMKKPGYYLSEEAYIARLRKELNLALYSRFPLTWIMEAADDISYCVADLEDAVEKRIFTVEQLYHHLHEAWGQHEKGSLFSLVVENAWEKSRSNSLSRSTEDQFFMYLRVNTLNKLVPYAAQRFIDNLPAIFAGTFNHALLEDASECSDLLKLYKNVAVKHVFSHPDVERLELQGYRVISGLLEIYRPLLSLSLSDFTELVEKERVKRFPIESRLFHKLSTRHRLAYVEAVSKLPSDSPEFPLWEYYYRCRLLQDYISGMTDLYAWDEYRRLMAVEQ
B2: Escherichia coli dGTPase E129A (enzyme)
chain: MAQIDFRKKINWHRRYRSPQGVKTEHEILRIFESDRGRIINSPAIRRLQQKTQVFPLERNAAVRTRLTHSMEVQQVGRYIAKEILSRLKELKLLEAYGLDELTGPFESIVEMSCLMHDIGNPPFGHFGAAAINDWFRQRLHPEDAESQPLTDDRCSVAALRLRDGEEPLNELRRKIRQDLCHFEGNAQGIRLVHTLMRMNLTWAQVGGILKYTRPAWWRGETPETHHYLMKKPGYYLSEEAYIARLRKELNLALYSRFPLTWIMEAADDISYCVADLEDAVEKRIFTVEQLYHHLHEAWGQHEKGSLFSLVVENAWEKSRSNSLSRSTEDQFFMYLRVNTLNKLVPYAAQRFIDNLPAIFAGTFNHALLEDASECSDLLKLYKNVAVKHVFSHPDVERLELQGYRVISGLLEIYRPLLSLSLSDFTELVEKERVKRFPIESRLFHKLSTRHRLAYVEAVSKLPSDSPEFPLWEYYYRCRLLQDYISGMTDLYAWDEYRRLMAVEQ
B3: Escherichia coli dGTPase H126A (enzyme)
chain: MAQIDFRKKINWHRRYRSPQGVKTEHEILRIFESDRGRIINSPAIRRLQQKTQVFPLERNAAVRTRLTHSMEVQQVGRYIAKEILSRLKELKLLEAYGLDELTGPFESIVEMSCLMHDIGNPPFGAFGEAAINDWFRQRLHPEDAESQPLTDDRCSVAALRLRDGEEPLNELRRKIRQDLCHFEGNAQGIRLVHTLMRMNLTWAQVGGILKYTRPAWWRGETPETHHYLMKKPGYYLSEEAYIARLRKELNLALYSRFPLTWIMEAADDISYCVADLEDAVEKRIFTVEQLYHHLHEAWGQHEKGSLFSLVVENAWEKSRSNSLSRSTEDQFFMYLRVNTLNKLVPYAAQRFIDNLPAIFAGTFNHALLEDASECSDLLKLYKNVAVKHVFSHPDVERLELQGYRVISGLLEIYRPLLSLSLSDFTELVEKERVKRFPIESRLFHKLSTRHRLAYVEAVSKLPSDSPEFPLWEYYYRCRLLQDYISGMTDLYAWDEYRRLMAVEQ
B4: Escherichia coli dGTPase Y272A (enzyme)
chain: MAQIDFRKKINWHRRYRSPQGVKTEHEILRIFESDRGRIINSPAIRRLQQKTQVFPLERNAAVRTRLTHSMEVQQVGRYIAKEILSRLKELKLLEAYGLDELTGPFESIVEMSCLMHDIGNPPFGHFGEAAINDWFRQRLHPEDAESQPLTDDRCSVAALRLRDGEEPLNELRRKIRQDLCHFEGNAQGIRLVHTLMRMNLTWAQVGGILKYTRPAWWRGETPETHHYLMKKPGYYLSEEAYIARLRKELNLALYSRFPLTWIMEAADDISACVADLEDAVEKRIFTVEQLYHHLHEAWGQHEKGSLFSLVVENAWEKSRSNSLSRSTEDQFFMYLRVNTLNKLVPYAAQRFIDNLPAIFAGTFNHALLEDASECSDLLKLYKNVAVKHVFSHPDVERLELQGYRVISGLLEIYRPLLSLSLSDFTELVEKERVKRFPIESRLFHKLSTRHRLAYVEAVSKLPSDSPEFPLWEYYYRCRLLQDYISGMTDLYAWDEYRRLMAVEQ

Legend:
crystal structure = molecular target: the molecule itself; assay: crystal structure
[1] = molecular target: the molecule itself

| Protein | stoichiometry N (crystal structure) | stoichiometry N [1] |
| --- | --- | --- |
| B1 | 6 |  |
| B2 |  | 6 |
| B3 |  | 6 |
| B4 |  | 6 |
